Target: purified active porcine pancreatic elastase (porcine) (UniProt P00772)
Assay: cell-based or functional assay

Chain of UniProt P00772 (P00772 27-266 limits assumed): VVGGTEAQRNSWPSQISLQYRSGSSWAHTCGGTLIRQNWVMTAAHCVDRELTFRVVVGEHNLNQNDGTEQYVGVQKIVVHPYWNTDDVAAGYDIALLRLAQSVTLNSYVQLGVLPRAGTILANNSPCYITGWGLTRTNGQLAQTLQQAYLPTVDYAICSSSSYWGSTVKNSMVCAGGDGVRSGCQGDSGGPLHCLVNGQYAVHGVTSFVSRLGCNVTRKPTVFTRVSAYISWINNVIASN

plasma-derived human alpha-1-antitrypsin (Prolastin-C) (from UniProt P01009 25-418)
A1AT concentration at which a decrease in elastase activity was detected: > 0.1 µM

From patent US20230272445A1
